T1: (EAR)3 peptide
T1 construct: Synthetic substrate peptide coated on the ELISA plate
T1 peptide: EAREAREAR


Experiments:
[1] = molecular target: T1, (EAR)3 peptide; assay: ELISA, (EAR)3 peptide coated, antibody at 100 µg/mL
[2] = molecular target: T2, Aβ (1-42) peptide (UniProt P05067 672-713); assay: ELISA, Aβ(1-42) coated
T2 construct: domain: Aβ (1-42) peptide; also called Aβ42
Method: (§1) Briefly, an ELISA plate was coated with an Aβ (1-42) peptide at 1 μg/mL in a coating buffer (0.2M sodium carbonate-bicarbonate buffer, pH 9.4), 100 μL/well at 4° C. overnight. The Aβ peptide was removed and the plate was washed three times with 250 μL/well of a washing buffer (PBST). The plate was then blocked with 200 μL/well of a blocking buffer (1% BSA in PBST) for 1 hour at room temperature, and washed two times with 250 μL/well of the washing buffer. To each well of the plate was added 100 μL of the antibody sample (3× serial dilution in the range of 3 ng/mL to 20 μg/mL) and incubated at room temperature for 1 hour. […] The plate was then washed three times with 250 μL/well of the washing buffer. HRP substrate (Amplex Red and H₂O₂) was prepared freshly with a developing buffer (3.6 mM Na₂HPO₄, 1.4 mM NaH₂PO₄, at pH7.2), and 100 μL of the HRP substrate was added to each well and incubated for 1-60 minutes. Signals were subsequently detected using a plate reader (Excitation wavelength=530 nm, Emission wavelength=590 nm, and cutoff wavelength =570 nm).

[3] = molecular target: T2, Aβ (1-42) peptide; assay: ELISA, Aβ(1-42) coated at 1 µg/mL, antibody titrated 3 ng/mL to 20 µg/mL
Method: as §1

T2 sequence (P05067 672-713 limits assumed): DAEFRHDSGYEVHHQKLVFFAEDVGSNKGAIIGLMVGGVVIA

binding result [1] | binding result [2] | Binder | other results
binds | – | 3D6-D (antibody, V domains shown, It was detected with anti-human IgG; also called 3D6-D antibody; 3D6-D catabody) VH: EVKLVESGGGLVKPGASLKLSCAASGFTFSNYGMSWVRQNSDKRLEWVASIRSGGGRTYYSDNVKGRFTISRENAKNTLYLQMSSLKSEDTALYYCVRYDHYSGSSDYWGQGTTVTVSS VL: not shown | –
binds | – | 3D6 (antibody, V domains shown, Non-catalytic anti-Aβ antibody, the parental murine antibody of bapineuzumab; An IgG1 isotype control and anti-human IgG detection were used; also called 3D6-Y; wild type 3D6 antibody) VH: EVKLVESGGGLVKPGASLKLSCAASGFTFSNYGMSWVRQNSDKRLEWVASIRSGGGRTYYSDNVKGRFTISRENAKNTLYLQMSSLKSEDTALYYCVRYDHYSGSSDYWGQGTTVTVSS VL: not shown | –
– | binds | hu3D6-D H1L1 (antibody, V domains shown, It was detected with goat anti-human IgG; also called hu3D6-D HIL1; humanized 3D6-D catabody) VH: EVQLVESGGGLVQPGGSLRLSCAASGFTFSNYGMSWVRQAPDKRLEWVASIRSGGGRTYYSDNVKGRFTISRDNAKNTLYLQMNSLRAEDTALYYCVRYDHYSGSSDYWGQGTLVTVSS VL: not shown | –
– | binds | hu3D6-D H1L2 (antibody, V domains shown, It was detected with goat anti-human IgG; also called hu3D6-D HIL2; hu3D6-D HISL2) VH: EVQLVESGGGLVQPGGSLRLSCAASGFTFSNYGMSWVRQAPDKRLEWVASIRSGGGRTYYSDNVKGRFTISRDNAKNTLYLQMNSLRAEDTALYYCVRYDHYSGSSDYWGQGTLVTVSS VL: not shown | –
– | – | bapineuzumab (antibody, V domains shown, also called humanized 3D6-Y; hu3D6-Y) VH: EVQLLESGGGLVQPGGSLRLSCAASGFTFSNYGMSWVRQAPGKGLEWVASIRSGGGRTYYSDNVKGRFTISRDNAKNSLYLQMNSLRAEDTALYYCVRYDHYSGSSDYWGQGTLVTVSS VL: YVVMTQSPLSLPVTPGEPASISCKSSQSLLDSDGKTYLNWLLQKPGQSPQRLIYLVSKLDSGVPDRFSGSGSGTDFTLKISRVEAEDVGVYYCWQGTHFPRTFGQGTKVEIKR | binding result [3]: binds

Source: patent US20210190796A1 (AB STUDIO, published 2021)
